Experimental data: patent publication US20110046070A1, “GENE EXPRESSION INHIBITOR SELECTIVE FOR MATRIX METALLOPROTEINASE-9 GENE” (priority 2008, published 2011)

Assay: Tissue distribution of fluorescently labeled polyamide
Type: in vivo
Conditions: 7.5 mg/kg tail vein, mice
Experimental: On day 1 (24 hours), day 6 and day 21 after the intravenous injection, the mice were dissected, and each tissue of the livers, the spleens and the kidneys was collected and prepared into frozen sections, which were then fixed in 4% paraformaldehyde for 30 minutes.

For `CN(C)CCCNC(=O)CCNC(=O)c1cc(NC(=O)c2cc(NC(=O)CCNC(=O)c3nc(NC(=O)c4nc(NC(=O)CCCNC(=O)c5cc(NC(=O)c6cc(NC(=O)CCNC(=O)c7cc(NC(=O)c8cc(NC(=O)CCNC(=S)Nc9ccc(-c%10c%11ccc(=O)cc-%11oc%11cc(O)ccc%10%11)c(C(=O)O)c9)cn8C)cn7C)cn6C)cn5C)cn4C)cn3C)cn2C)cn1C` [HMMP9NFκβ-FITC], the “incorporation in the nuclei of liver and kidney cells” value (after 1 day) was “A large number”, the “incorporation in the nuclei of spleen cells” value (after 1 day) was “also incorporated in the nuclei of spleen cells” and the “FITC fluorescence in tissue” value (after 6 days) was “strong FITC fluorescence was observed”. For the same molecule, the “FITC fluorescence intensity in the cells of each tissue” value (after 21 days) was “remarkably attenuated”.
